For three substances, Kd, dH and stoichiometry N results are on record in publication PMC3903306.

In experiment [1] the target is IpgC (Shigella flexneri) (UniProt P0A2U4). Description: ITC. A general note: In ITC the heat of successive injections is recorded.
Experiment [2] concerns the target IpaB^1.226 (Shigella flexneri). Briefly: cross-linking.
In experiment [3] the target is IpaB^28.226 (Shigella flexneri). Briefly: cross-linking.
The target in experiment [4] is FM-IpaB^C1.226 (Shigella flexneri). Description: fluorescence polarisation. Background: In fluorescence polarisation assays a small probe gives low polarisation when free and higher when bound to something large.
Experiment [5] addresses FM-IpaB^N1.226 (Shigella flexneri). Description: fluorescence polarisation.
In experiment [6] the target is FM-IpaB^N28.226 (Shigella flexneri). Description: fluorescence polarisation.
In experiment [7] the target is FM-IpaB^C28.226 (Shigella flexneri). Briefly: fluorescence polarisation.

In experiment [1], IpaB^1.226 (domain or fragment) gave a Kd of 208 nM, a dH of 8.68 kcal/mol and a stoichiometry N of 1.03. In experiment [2], this substance gave a stoichiometry N of 2.

In experiment [1], IpaB^28.226 (domain or fragment) registered a Kd of 2960 nM, a dH of 3.55 kcal/mol and a stoichiometry N of 0.88. Also, the stoichiometry N in experiment [3] amounted to 2.

For “IpgC (from UniProt P0A2U4 1-155) (natural protein)”, the dissociation constant Kd in experiment [4] was found to be 59.5 nM; in experiment [5], 199 nM; in experiment [6] it was 411 nM; in experiment [7], 501 nM.

By Kd is commonly meant the constant that tells how readily two partners part at equilibrium. The stoichiometry N is the number of molecules, sites or subunits per partner or assembly.
